Laboratory results from article PMC3975500 (Cell Research, 2014).

T1: Lsm7 (full length), subunit of the crystallized Lsm1-7 complex (S. cerevisiae, UniProt P53905 1-115)
T1 sequence: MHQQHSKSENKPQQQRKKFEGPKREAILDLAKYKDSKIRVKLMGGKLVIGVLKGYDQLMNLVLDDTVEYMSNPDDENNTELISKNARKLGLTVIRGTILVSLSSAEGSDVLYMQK

T2: Lsm1-7 heptamer (Saccharomyces cerevisiae, UniProt P47017;P38203;P57743;P40070;P40089;Q06406;P53905 …)
T2 sequence 1: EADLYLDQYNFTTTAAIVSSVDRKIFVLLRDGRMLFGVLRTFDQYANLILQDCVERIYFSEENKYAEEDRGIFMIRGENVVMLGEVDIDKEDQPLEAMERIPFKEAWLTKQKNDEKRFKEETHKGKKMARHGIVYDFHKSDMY
T2 sequence 2: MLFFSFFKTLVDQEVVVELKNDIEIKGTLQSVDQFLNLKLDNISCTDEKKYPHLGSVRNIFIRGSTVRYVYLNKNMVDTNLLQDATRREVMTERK
T2 sequence 3: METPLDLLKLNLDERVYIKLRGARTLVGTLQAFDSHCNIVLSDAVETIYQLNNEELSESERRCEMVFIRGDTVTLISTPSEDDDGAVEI
T2 sequence 4: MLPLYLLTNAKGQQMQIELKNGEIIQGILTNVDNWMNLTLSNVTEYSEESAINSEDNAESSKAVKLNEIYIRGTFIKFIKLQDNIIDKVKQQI
T2 sequence 5: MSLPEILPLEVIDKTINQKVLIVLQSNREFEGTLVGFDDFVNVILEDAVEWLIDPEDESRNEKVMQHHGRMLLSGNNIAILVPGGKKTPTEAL
T2 sequence 6: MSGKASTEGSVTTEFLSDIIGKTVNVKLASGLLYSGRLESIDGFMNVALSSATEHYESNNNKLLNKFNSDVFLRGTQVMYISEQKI
T2 sequence 7: T1 sequence

B1: Lsm6 (full length), subunit of the crystallized Lsm1-7 complex (natural protein)
chain: T2 sequence 6
B2: Lsm5 (full length), subunit of the crystallized Lsm1-7 complex (natural protein)
chain: T2 sequence 5
B3: Lsm4 (residues 1-93), subunit of the crystallized Lsm1-7 complex (domain or fragment)
chain: T2 sequence 4
B4: oligo-U (U8) (ssRNA)
RNA: UUUUUUUU

Key:
[1] = target: B2; test: crystal structure
[2] = target: T1, Lsm7 (full length), subunit of the …; test: crystal structure
Lsm1-7 heptamer = target: T2, Lsm1-7 heptamer; test: BLI

Row | Binder | binding result [2] | other results
1 | B1 |  | binding result [1]: binds
2 | B2 | binds | 
3 | B3 | binds | 
4 | B4 |  | Kd (Lsm1-7 heptamer): ~2000 nM
